According to patent US20240182536A1 (MURAL ONCOLOGY, published 2024):
Substitutions are numbered along the chain they refer to. Numbers in names are those of the source.

B1: IL-18 variant E6G, D54A, S55K, T63S, N91K, Q114R (ligand)
chain: YFGKLGSKLSVIRNLNDQVLFIDQGNRPLFEDMTDSDMRDNAPRTIFIISMYKAKQPRGMAVSISVKSEKISTLSSENKIISFKEMNPPDKIKDTKSDIIFFQRSVPGHDNKMRFESSSYEGYFLASEKERDLFKLILKKEDELGDRSIMFTVQNED
B2: IL-18 variant G3H, E6Q, K53N, D54S, S55P, T63A, N91I, R104S (ligand)
chain: B1 chain with G3H, G6Q, K53N, A54S, K55P, S63A, K91I, R104S, R114Q
B3: IL-18 variant G3L, E6Q, D54Y, S55P, T63S, N91S, R104Q (ligand)
chain: B1 chain with G3L, G6Q, A54Y, K55P, K91S, R104Q, R114Q
B4: IL-18 variant G3I, E6Q, N91M, R104Y (ligand)
chain: B1 chain with G3I, G6Q, A54D, K55S, S63T, K91M, R104Y, R114Q
B5: IL-18 variant G3S, E6Q, K53N, D54T, S55N, T63A, I80T, N91S (ligand)
chain: B1 chain with G3S, G6Q, K53N, A54T, K55N, S63A, I80T, K91S, R114Q
B6: IL-18 variant N91S, R104H (ligand)
chain: B1 chain with G6E, A54D, K55S, S63T, K91S, R104H, R114Q
B7: IL-18 variant G3Q, E6D, K53S, D54I, S55E, T63S, N91S, R104Q (ligand)
chain: B1 chain with G3Q, G6D, K53S, A54I, K55E, K91S, R104Q, R114Q
B8: IL-18 variant G3V, E6Q, T34P, D54M, S55F, N91R, R104H (ligand)
chain: B1 chain with G3V, G6Q, T34P, A54M, K55F, S63T, K91R, R104H, R114Q
B9: IL-18 variant G3D, E6Q, R27S, K53R, D54A, S55R, T63S, N91Q (ligand)
chain: B1 chain with G3D, G6Q, R27S, K53R, K55R, K91Q, R114Q
B10: IL-18 variant G3L, E6N, I22M, T63V, N91T, R104P (ligand)
chain: B1 chain with G3L, G6N, I22M, A54D, K55S, S63V, K91T, R104P, R114Q
B11: IL-18 variant K53T, D54H, S55V, T63A, N91K (ligand)
chain: B1 chain with G6E, K53T, A54H, K55V, S63A, R114Q
B12: IL-18 variant E6D, D54T, S55W, T63S, N91S, R104T (ligand)
chain: B1 chain with G6D, A54T, K55W, K91S, R104T, R114Q

How the values were obtained:
[1] = biological target: T1, IL-18 receptors on HEK-Blue IL-18 reporter cells (UniProt Q13478 19-541; O95256 20-599, limits assumed); test: cell-based or functional assay
T1 sequence (looked up) 1: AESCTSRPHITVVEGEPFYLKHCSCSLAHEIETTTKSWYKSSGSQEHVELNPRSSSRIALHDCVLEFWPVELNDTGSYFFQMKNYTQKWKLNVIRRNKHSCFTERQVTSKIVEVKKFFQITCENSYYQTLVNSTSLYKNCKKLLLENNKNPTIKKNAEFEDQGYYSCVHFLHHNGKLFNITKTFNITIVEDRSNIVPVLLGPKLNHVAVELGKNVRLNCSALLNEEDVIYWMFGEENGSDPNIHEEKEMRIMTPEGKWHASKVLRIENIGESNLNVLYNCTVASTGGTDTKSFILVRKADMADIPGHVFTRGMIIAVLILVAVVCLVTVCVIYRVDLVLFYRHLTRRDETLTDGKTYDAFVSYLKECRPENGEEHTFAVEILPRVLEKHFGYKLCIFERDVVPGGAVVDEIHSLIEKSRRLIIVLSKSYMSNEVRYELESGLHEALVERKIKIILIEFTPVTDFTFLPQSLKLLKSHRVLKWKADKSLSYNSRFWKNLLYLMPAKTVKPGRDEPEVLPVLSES
T1 sequence (looked up) 2: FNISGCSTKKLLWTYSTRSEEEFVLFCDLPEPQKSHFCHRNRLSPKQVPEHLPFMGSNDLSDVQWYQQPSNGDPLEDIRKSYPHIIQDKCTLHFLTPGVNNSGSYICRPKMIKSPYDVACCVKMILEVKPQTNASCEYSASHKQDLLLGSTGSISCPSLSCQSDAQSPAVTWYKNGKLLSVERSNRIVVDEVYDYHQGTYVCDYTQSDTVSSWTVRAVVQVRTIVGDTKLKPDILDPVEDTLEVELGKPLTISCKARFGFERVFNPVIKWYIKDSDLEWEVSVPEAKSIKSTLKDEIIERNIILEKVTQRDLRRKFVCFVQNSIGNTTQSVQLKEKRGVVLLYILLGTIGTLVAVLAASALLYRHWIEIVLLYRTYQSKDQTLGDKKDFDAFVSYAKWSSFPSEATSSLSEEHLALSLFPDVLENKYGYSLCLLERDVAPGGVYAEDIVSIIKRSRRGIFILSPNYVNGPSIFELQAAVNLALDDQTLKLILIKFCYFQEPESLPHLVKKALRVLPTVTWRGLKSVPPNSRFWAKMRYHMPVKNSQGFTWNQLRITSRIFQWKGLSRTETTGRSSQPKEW

[2] = biological target: T2, IL-18 binding protein (IL-18BP) (UniProt O95998 31-194); test: cell-based or functional assay
T2 sequence (looked up): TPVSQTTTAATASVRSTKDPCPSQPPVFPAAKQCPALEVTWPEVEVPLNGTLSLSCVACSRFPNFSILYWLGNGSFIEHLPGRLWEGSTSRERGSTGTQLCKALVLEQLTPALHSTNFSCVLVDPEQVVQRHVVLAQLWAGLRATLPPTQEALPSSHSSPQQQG

Row | Binder | Activity, No BP, DF-100000 [1] | Activity, No BP, DF-500000 [1] | Activity, No BP, DF-2500000 [1] | Activity, +100 nM BP, DF-1000002 [2] | Activity, +100 nM BP, DF-5000003 [2] | Activity, +100 nM BP, DF-25000004 [2] | Ratio (-BP/+BP), DF-1000005 [2] | Ratio (-BP/+BP), DF-5000006 [2] | Ratio (-BP/+BP), DF-25000007 [2]
1 | B1 | 2.2 | 2.05 | 1.61 | 1.89 | 1.33 | 0.49 | 1.17 | 1.54 | 3.3
2 | B2 | 0.18 | 0.09 | 0.07 | 0.21 | 0.12 | 0.08 | 0.86 | 0.78 | 0.91
3 | B3 | 1.66 | 0.9 | 0.37 | 0.75 | 0.19 | 0.1 | 2.23 | 4.67 | 3.8
4 | B4 | 2.12 | 2 | 1.53 | 1.84 | 0.96 | 0.29 | 1.15 | 2.07 | 5.26
5 | B5 | 0.24 | 0.11 | 0.08 | 0.23 | 0.11 | 0.11 | 1.05 | 1.03 | 0.71
6 | B6 | 1.34 | 0.61 | 0.19 | 0.09 | 0.08 | 0.11 | 14.7 | 7.35 | 1.72
7 | B7 | 0.09 | 0.07 | 0.07 | 0.12 | 0.09 | 0.11 | 0.73 | 0.8 | 0.68
8 | B8 | 0.97 | 0.41 | 0.13 | 0.14 | 0.08 | 0.08 | 6.88 | 4.95 | 1.77
9 | B9 | 1.02 | 0.41 | 0.13 | 0.52 | 0.15 | 0.09 | 1.95 | 2.81 | 1.5
10 | B10 | 0.08 | 0.07 | 0.07 | 0.09 | 0.09 | 0.07 | 0.8 | 0.82 | 0.97
11 | B11 | 0.28 | 0.12 | 0.12 | 0.23 | 0.1 | 0.07 | 1.18 | 1.24 | 1.58
12 | B12 | 1.27 | 0.55 | 0.18 | 0.37 | 0.15 | 0.1 | 3.41 | 3.62 | 1.93
